Assay [1] addresses T1, 3×FLAG-NRFL-1 with PDZ I mutated (G26A/Y27A) (C. elegans, UniProt G5EDM4 1-467, G26A | Y27A).
T1 construct: not shown: GST, N-terminal, cleaved; 3×FLAG, N-terminal, kept
T1 sequence (looked up): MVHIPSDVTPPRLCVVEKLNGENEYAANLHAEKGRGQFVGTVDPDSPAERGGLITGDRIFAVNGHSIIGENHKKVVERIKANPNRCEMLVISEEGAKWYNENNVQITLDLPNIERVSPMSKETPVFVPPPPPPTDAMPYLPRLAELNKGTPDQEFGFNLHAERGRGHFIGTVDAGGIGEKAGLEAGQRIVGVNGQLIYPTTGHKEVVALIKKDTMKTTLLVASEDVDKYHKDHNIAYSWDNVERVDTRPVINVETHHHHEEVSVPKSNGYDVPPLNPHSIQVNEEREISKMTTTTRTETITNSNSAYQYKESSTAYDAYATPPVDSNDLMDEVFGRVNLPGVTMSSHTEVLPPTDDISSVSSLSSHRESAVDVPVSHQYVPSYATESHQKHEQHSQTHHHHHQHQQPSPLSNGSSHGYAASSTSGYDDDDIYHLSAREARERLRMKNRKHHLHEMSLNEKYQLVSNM
As to the kind of experiment: pull-down; GST pull-down: 2 µg GST fusion protein and 5 µg recombinant 3×FLAG-NRFL-1, overnight at 4°C in 50 mM Tris pH 7.4, 150 mM NaCl, 5 mM EDTA, 0.1% NP-40; blot with anti-FLAG. The following applies: both partners purified.

Assay [2] has as its target T2, 3×FLAG-NRFL-1 (wild type) (C. elegans, UniProt G5EDM4 1-467).
T2 construct: NRFL-1 (C01F6.6a), C. elegans, full-length wild type; cDNA first ligated into p3×FLAG-myc-CMV-24, then the 3×FLAG-NRFL-1 fragment moved into pGEX-6P-1; also called recombinant NRFL-1 wild-type; not shown: GST, N-terminal, cleaved; 3×FLAG, N-terminal, kept
T2 sequence (looked up): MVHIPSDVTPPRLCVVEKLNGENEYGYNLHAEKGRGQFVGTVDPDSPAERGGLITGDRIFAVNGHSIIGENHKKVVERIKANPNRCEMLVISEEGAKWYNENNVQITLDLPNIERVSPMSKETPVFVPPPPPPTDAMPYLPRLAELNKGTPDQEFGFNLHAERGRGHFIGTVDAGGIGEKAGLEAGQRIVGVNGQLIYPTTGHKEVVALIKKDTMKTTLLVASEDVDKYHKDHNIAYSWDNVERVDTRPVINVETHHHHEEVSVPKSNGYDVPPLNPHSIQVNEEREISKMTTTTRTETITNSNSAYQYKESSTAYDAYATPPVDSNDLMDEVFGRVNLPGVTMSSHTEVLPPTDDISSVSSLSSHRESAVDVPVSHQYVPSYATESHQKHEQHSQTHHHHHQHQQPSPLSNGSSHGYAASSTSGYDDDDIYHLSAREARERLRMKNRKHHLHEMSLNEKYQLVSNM
Described as above. Conditions: both partners purified.

B1: GST fusion of AAT-6 C-terminus tail corresponding to residues 487–523 (domain or fragment, C. elegans, UniProt Q22397 487-523, looked up)
chain: GDEEMKNAIGGAESESEKVPAYKISPTGNGQFKCTRM
notes: also called GST-AAT-6; source: E. coli BL21 (DE3), purified (Glutathione Sepharose 4B); not shown: GST, N-terminal, kept
For the molecule B1, the binding result in assay [1] and in assay [2] was “binds” in each case.

The record behind these values is PMC3419730, “NRFL-1, the C. elegans NHERF Orthologue, Interacts with Amino Acid Transporter 6 (AAT-6) for Age-Dependent Maintenance of AAT-6 on the Membrane” (PLoS ONE, 2012).
